As usually defined, the Kd is the constant that tells how readily two partners part at equilibrium.

The values that follow come from patent publication US20180155451A1 (published 2018).

In assay [1] the target is T1, FcγRIa extracellular domain with C-terminal His tag (human, UniProt P12314 16-292).
T1 construct: extracellular domain; also called FcgRIa; FcgRI
Kind of assay: SPR (Biacore T100), ratio of KD values. On the procedure: (§1) These antibodies were assessed for the binding activity to each FcγR according to the method described in Reference Example 2.
(§2) Analysis of interaction between objective antibody and the FcγR was carried out using Biacore T100 (GE Healthcare). HBS-EP+ (GE Healthcare) was used as the running buffer, and the measurement temperature was set to 25° C. Chips produced by immobilizing the antigen peptide by the amine coupling method to a Series S Sencor Chip CM5 (GE Healthcare), or alternatively, chips produced by allowing preliminarily biotinylated antigen peptides to interact with and immobilize onto a Series S Sensor Chip SA (certified) (GE Healthcare) were used. Antibodies of interest were captured onto an antigen peptide-immobilized chip, and allowed to interact to each FcγR diluted with running buffer. To regenerate and repeatedly use the chip, the antibodies captured on the chip were washed off by reacting 10 mM glycine-HCl, pH 1.5.
(§3) The FcγR-binding activity of each antibody was assessed primarily using as an indicator the FcγR-binding activity and dissociation constant for FcγR.

Assay [2] has as its target T2, FcγRIIa type H extracellular domain with C-terminal His tag (human, UniProt P12318 34-217).
T2 construct: extracellular domain; also called FcgRIIa H; FcγRIIa H
T2 sequence (looked up): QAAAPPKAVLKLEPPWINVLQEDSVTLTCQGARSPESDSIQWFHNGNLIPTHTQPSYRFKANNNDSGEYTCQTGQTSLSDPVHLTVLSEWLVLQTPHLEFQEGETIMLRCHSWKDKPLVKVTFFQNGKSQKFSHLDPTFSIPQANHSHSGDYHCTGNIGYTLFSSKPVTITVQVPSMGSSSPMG
Nature of the assay: SPR (Biacore T100), ratio of KD values. On the procedure: as §1, §2, §3
Background: In SPR one partner is held on a chip, and binding of the other changes the refractive index at the surface.

For assay [3], the target named is T3, FcγRIIa type R extracellular domain with C-terminal His tag (human, UniProt P12318 34-217).
T3 construct: extracellular domain; also called FcgRIIa R; FcγRIIa R
T3 sequence (looked up): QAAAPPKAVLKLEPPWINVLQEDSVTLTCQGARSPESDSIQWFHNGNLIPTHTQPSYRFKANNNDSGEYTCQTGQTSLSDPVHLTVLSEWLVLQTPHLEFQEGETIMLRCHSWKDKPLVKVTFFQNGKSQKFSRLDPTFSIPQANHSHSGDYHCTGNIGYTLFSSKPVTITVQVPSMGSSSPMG
Nature of the assay: SPR (Biacore T100), ratio of KD values. On the procedure:
as §1, §2, §3

The target of assay [4] is T4, FcγRIIb extracellular domain with C-terminal His tag (human, UniProt P31994 43-217).
T4 construct: extracellular domain; also called FcgRIIb
T4 sequence (looked up): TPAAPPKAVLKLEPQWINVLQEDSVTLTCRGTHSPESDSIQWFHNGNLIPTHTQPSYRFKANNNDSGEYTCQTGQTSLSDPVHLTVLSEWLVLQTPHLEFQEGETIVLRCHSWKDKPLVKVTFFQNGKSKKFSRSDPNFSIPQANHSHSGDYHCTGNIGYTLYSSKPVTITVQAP
Nature of the assay: SPR (Biacore T100), ratio of KD values. On the procedure: as §1, §2, §3

Assay [5] concerns the target T5, FcγRIIIa type F extracellular domain with C-terminal His tag (human, UniProt P08637 17-208).
T5 construct: extracellular domain; also called FcgRIIIa F; FcγRIIIa F
Nature of the assay: SPR (Biacore T100), ratio of KD values. Here is the method:
as §1, §2, §3

Assay [6] has as its target T6, FcγRIIIa type V extracellular domain with C-terminal His tag (human, UniProt P08637 17-208).
T6 construct: extracellular domain; also called FcgRIIIa V; FcγRIIIa V
Nature of the assay: SPR (Biacore T100), ratio of KD values. Here is the method:
as §1, §2, §3

In assay [7] the target is T1, FcγRIa extracellular domain with …. Kind of assay: SPR (Biacore T100), antibody captured on antigen-peptide chip, FcγR analyte, 1:1 Langmuir fit. Here is the method:
as §1, §2, §3

The target of assay [8] is T2, FcγRIIa type H extracellular domain …. Described as above. On the procedure:
as §1, §2, §3

Assay [9] addresses T3, FcγRIIa type R extracellular domain …. Described as above. On the procedure: as §1, §2, §3
Assay [10] addresses T4, FcγRIIb extracellular domain with …. The description is as above. Here is the method:
as §1, §2, §3

In assay [11] the target is T5, FcγRIIIa type F extracellular domain …. The description is as above. On the procedure:
as §1, §2, §3

Assay [12] addresses T6, FcγRIIIa type V extracellular domain …. The description is as above. Here is the method: as §1, §2, §3

T5 sequence (P08637 17-208): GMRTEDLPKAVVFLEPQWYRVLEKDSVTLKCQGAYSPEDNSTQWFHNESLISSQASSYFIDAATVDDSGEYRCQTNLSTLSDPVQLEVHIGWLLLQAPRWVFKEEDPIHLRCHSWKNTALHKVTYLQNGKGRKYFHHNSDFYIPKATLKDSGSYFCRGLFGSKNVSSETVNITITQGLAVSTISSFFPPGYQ
T1 sequence (P12314 16-292): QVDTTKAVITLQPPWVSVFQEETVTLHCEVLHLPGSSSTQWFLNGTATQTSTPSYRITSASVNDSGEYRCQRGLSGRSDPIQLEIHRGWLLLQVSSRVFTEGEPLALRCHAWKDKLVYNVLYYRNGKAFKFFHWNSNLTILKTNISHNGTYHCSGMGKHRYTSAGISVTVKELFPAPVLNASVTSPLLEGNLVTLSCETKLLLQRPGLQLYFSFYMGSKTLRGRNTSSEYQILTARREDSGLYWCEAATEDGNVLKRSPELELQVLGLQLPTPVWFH
T6 sequence (P08637 17-208 F176V): as the sequence (P08637 17-208) above, with F160V counted along it

B1: GpH7-Kn045/GpH7-Hl048/GpL16-k0 (antibody, human IgG1, kappa)
heavy 1: QVQLVQSGAEVKKPGASVTVSCKASGYTFTDYEMHWIRQPPGEGLEWIGAIDPKTGDTAYSESFQDRVTLTADKSTSTAYMELSSLTSEDTAVYYCTRFYSYTYWGQGTLVTVSSASTKGPSVFPLAPSSKSTSGGTAALGCLVKDYFPEPVTVSWNSGALTSGVHTFPAVLQSSGLYSLSSVVTVPSSSLGTQTYICNVNHKPSNTKVDKKVEPKSCDKTHTCPPCPAPEYYAGPSVFLFPPKPKDTLMISRTPEVTCVVVDVSDEDPEVKFNWYVDGVEVHNAKTKPREEQYNATYRVVSVLTVLHQDWLNGKEYKCKVSNKALPAPIEKTISKAKGQPREPQVCTLPPSRDELTKNQVSLWCLVKGFYPSDIAVEWESNGQPENNYKTTPPVLDSDGSFFLYSKLTVDKSRWQQGNVFSCSVMHEALHNHYTQKSLSLSP
heavy 2: QVQLVQSGAEVKKPGASVTVSCKASGYTFTDYEMHWIRQPPGEGLEWIGAIDPKTGDTAYSESFQDRVTLTADKSTSTAYMELSSLTSEDTAVYYCTRFYSYTYWGQGTLVTVSSASTKGPSVFPLAPSSKSTSGGTAALGCLVKDYFPEPVTVSWNSGALTSGVHTFPAVLQSSGLYSLSSVVTVPSSSLGTQTYICNVNHKPSNTKVDKKVEPKSCDKTHTCPPCPAPELLAGPDVFLFPPKPKDTLMISRTPEVTCVVVDVSHEDPEVKFNWYVDGVEVHNAKTKPREEQYNSTYRVVSVLTVLHQDWLNGKEYKCKVSNKALPKPEEKTISKAKGQPREPQVYTLPPSRCELTKNQVSLSCAVKGFYPSDIAVEWESNGQPENNYKTTPPVLDSDGSFFLVSKLTVDKSRWQQGNVFSCSVMHEALHNHYTQKSLSLSP
light: DIVMTQSPLSLPVTPGEPASISCQASESLVHSNRNTYLHWYLQKPGQSPQLLIYKVSNRFSGVPDRFSGSGSGTDFTLKISRVEAEDVGVYYCSQNTHVPPTFGQGTKVEIERTVAAPSVFIFPPSDEQLKSGTASVVCLLNNFYPREAKVQWKVDNALQSGNSQESVTEQDSKDSTYSLSSTLTLSKADYEKHKVYACEVTHQGLSSPVTKSFNRGEC
notes: Heterodimerized anti-glypican-3 IgG1; also called Kn045/Hl048
For the molecule B1, the KD ratio in [1] was 3.7 fold (KD of GpH7-Kn033/GpH7-Hl033/GpL16-k0 divided by KD of this antibody); in assay [2], 52 fold (KD of GpH7-Kn033/GpH7-Hl033/GpL16-k0 divided by KD of this antibody); in assay [3], 154 fold (KD of GpH7-Kn033/GpH7-Hl033/GpL16-k0 divided by KD of this antibody); in assay [4], 34 fold (KD of GpH7-Kn033/GpH7-Hl033/GpL16-k0 divided by KD of this antibody); in [5], 419 fold (KD of GpH7-Kn033/GpH7-Hl033/GpL16-k0 divided by KD of this antibody); in assay [6], 170 fold (KD of GpH7-Kn033/GpH7-Hl033/GpL16-k0 divided by KD of this antibody). Besides, the Kd in [7] was 0.019 nM; in [8], 11 nM; in assay [9], 4.8 nM; in [10] it was 110 nM; in assay [11], 3.7 nM; in assay [12], 1.3 nM.
